Experimental data reported in patent US20250154264A1 (GENOVAC ANTIBODY DISCOVERY, published 2025).

T1: human ALK5 on transiently transfected cells (human, UniProt P36897 34-503)
T1 construct: whole, on cells; also called ALK5 of human
T1 sequence (looked up): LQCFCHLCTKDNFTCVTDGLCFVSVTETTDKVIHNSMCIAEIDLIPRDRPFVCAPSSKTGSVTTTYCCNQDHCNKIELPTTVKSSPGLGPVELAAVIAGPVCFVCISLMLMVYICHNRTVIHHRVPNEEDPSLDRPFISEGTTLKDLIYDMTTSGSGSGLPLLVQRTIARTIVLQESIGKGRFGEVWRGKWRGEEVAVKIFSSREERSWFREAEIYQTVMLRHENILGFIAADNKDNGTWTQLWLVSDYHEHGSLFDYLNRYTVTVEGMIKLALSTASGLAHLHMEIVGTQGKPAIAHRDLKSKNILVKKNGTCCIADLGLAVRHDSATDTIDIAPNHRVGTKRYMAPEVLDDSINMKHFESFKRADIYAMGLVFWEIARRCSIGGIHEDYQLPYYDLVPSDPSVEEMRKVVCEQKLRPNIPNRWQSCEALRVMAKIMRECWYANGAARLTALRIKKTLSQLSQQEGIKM

T2: murine ALK1, N-terminally tagged, on transiently transfected cells (mouse, UniProt Q61288 23-502)
T2 construct: whole, on cells; also called mouse ALK1; murine orthologue; not shown: N-terminal tag used for the expression control
T2 sequence (looked up): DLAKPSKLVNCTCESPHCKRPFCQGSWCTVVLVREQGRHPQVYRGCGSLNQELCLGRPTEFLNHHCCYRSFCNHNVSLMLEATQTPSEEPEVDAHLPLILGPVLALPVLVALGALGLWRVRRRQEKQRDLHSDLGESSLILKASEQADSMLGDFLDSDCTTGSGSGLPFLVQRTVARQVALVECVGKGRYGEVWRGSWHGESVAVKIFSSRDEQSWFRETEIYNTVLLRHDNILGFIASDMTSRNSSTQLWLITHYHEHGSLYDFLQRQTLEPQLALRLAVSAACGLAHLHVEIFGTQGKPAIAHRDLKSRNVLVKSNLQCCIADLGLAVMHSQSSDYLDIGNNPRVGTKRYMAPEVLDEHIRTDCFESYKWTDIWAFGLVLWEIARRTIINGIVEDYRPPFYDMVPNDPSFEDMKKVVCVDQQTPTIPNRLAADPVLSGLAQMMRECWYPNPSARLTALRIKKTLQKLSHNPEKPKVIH


Experiments:
[1] = target: T1, human ALK5 on transiently transfected …; experiment: flow cytometry, hybridoma supernatant on transiently transfected cells (Example 3)
Procedure: (§1) Flow cytometry was used to measure fluorescence intensity produced by fluorescent-labeled secondary antibodies detecting primary anti-ALK1 antibodies that bind to specific cell-associated ALK5 molecules. More precisely hybridoma supernatants containing primary antibodies were tested for binding to transiently transfected cells expressing ALK5 of human and mouse by flow cytometry. The signals were generated by use of secondary, PE-labelled goat anti-rat antibodies. In addition to testing the supernatants on non-transfected cells, ALK5 of human and mouse-transfected cells were incubated only with the secondary antibody (without supernatants) as a negative control.

[2] = target: T3, human ALK1 (Activin A receptor like type 1), N-terminally tagged, on transiently transfected cells (human, UniProt P37023 22-503); experiment: flow cytometry, hybridoma supernatant on transiently transfected cells, PE goat anti-rat secondary
T3 construct: also called ALK1 of human; ACVRL1; not shown: N-terminal tag used for the expression control
Procedure: as §1, with “Various isolated antibodies were assessed for the ability to bind ALK1 from mouse (murine), human, and cyno monkey. Flow” for “Flow”, “ALK1” for “ALK5”, “human, cyno monkey” for “human”

[3] = target: T2, murine ALK1, N-terminally tagged, on …; experiment: as above
Procedure: as §1, with “Various isolated antibodies were assessed for the ability to bind ALK1 from mouse (murine), human, and cyno monkey. Flow” for “Flow”, “ALK1” for “ALK5”, “human, cyno monkey” for “human”

T3 sequence (P37023 22-503): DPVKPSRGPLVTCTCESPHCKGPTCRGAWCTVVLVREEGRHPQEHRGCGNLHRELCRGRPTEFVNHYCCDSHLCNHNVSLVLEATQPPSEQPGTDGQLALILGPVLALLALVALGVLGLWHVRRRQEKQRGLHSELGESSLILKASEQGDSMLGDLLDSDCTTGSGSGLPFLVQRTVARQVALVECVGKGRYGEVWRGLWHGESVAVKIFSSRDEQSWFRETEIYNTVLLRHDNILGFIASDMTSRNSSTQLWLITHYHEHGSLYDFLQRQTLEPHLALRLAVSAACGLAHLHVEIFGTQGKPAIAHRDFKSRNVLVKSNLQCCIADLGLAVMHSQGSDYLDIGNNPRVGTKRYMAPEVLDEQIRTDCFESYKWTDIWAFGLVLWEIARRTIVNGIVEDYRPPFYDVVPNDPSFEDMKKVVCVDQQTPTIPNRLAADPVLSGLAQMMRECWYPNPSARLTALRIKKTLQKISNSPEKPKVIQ

binding result [1] | binding result [2] | binding result [3] | Binder
no binding | binds | binds | BVO-B-1H7-E3 (antibody, V domains shown, Tested as OmniRat hybridoma supernatant and detected with goat anti-rat secondary antibody) VH: QLQLQESGPGLVKPSETLSLTCTVSGGSISSRSYYWGWIRQPPGKGLEWIGNIYYSGSAFYNPSLKSRVTISVDTSKNQFSLKLSSVTAADTAVYYCARWDNWDVGAFDIWGQGTMVTVSS VL: QSALTQPPSASGSPGQSVTISCTGTSSDVGGYNYVSWYQQHPGKAPKLMIYEVSKRPSGVPDRFSGSKSGNTASLTVSGLQAEDEADYYCTSFAGSNNWVFGGGTKLTVL
no binding | binds | binds | BVO-A-9F7-A10 (antibody, V domains shown, Tested as OmniRat hybridoma supernatant and detected with goat anti-rat secondary antibody; also called BVO-A-9E7-A10) VH: QVQLQQWGAGLLKPSETLSLTCAVYGGSFSSSYWNWIRQPPGKGLEWIGEVNHSGSTNYNPSLKSRVTISLDTSKNQFSLKLSSVTAADTAVYYCARSPRSGRIVGAVFDYWGQGTLVTVSS VL: SYVLTQPPSVSVAPGQTARITCGGNNIGPKSVHWYQQKPGQAPVLVVYDDSDRPSGIPERFSGSNSGNTATLTISRVEAGDEADYYCQVWDSSNDHVVFGGGTKLTVL
